From US20110117086A1 (LES LABORATOIRES SERVIER, published 2011)
“And” between values parts separate entries of the source, which are not always exact repeats. Identical values can stand only once. Non-standard residues stand in square brackets, D forms with d. No end group written: not given here. KLH = keyhole limpet hemocyanin; Ahx = NCCCCCC(=O)O

T1: Recombinant human progastrin (human, UniProt P01350 22-101)
T1 construct: 80-residue progastrin (pre-progastrin without the signal peptide); In the cell assays the target is the progastrin secreted by the CRC cell lines; also called hPG; PG
T1 sequence: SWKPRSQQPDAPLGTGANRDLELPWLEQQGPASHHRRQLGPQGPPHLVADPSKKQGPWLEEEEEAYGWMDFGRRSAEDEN

T2: Immunogen N2 = SWKPRSQQPDAPLG Ahx Cys KLH (human)
T2 construct: hPG residues 1 to 14 with linker, coupled to the KLH carrier; also called KLH-linked N-terminal peptide
T2 peptide: SWKPRSQQPDAPLG[Ahx]C-{KLH}

B1: Anti-hPG MAb 4 (antibody, V domains shown)
VH: QVQLQQSGAELMKPGASVKISCKATGYTFSSSWIEWLKQRPGHGLEWIGEFLPGSGSTDYNEKFKGKATFTADTSSDTAYMLLSSLTSEDSAVYYCATDGNYDWFAYWGQGTLVTVSA
VL: DLVMTQTPLSLPVSLGDQASISCRSSQSLVHSSGVTYLHWYLQKPGQSPKLLIYKVSNRFSGVPDRFSGSGSGTDFTLKISRVEAEDLGVYFCSQSTHVPPTFGSGTKLEIK
notes: Mouse IgG1, hybridoma 20D2C3G2, raised against immunogen N2; also called 20D2C3G2
B2: Anti-hPG MAb 3 (antibody, V domains shown)
VH: EVQLQQSGTVLARPGASVKMSCKASGYIFTSYWVHWVKQRPGQGLEWIGGFYPGNSDSRYNQKFKGKATLTAVTSASTAYMDLSSLTNEDSAVYFCTRRDSPQYWGQGTTLTVSS
VL: DVLMTQTPLSLPVSLGDQASISCRSSQSIVHSNGNTYLEWYLQKPGQSPKLLIYKVSNRFSGVPDRFSGSGSGTDFTLKISRLEAEDLGVYYCFQGSHVPFTFGGGTKLEIK
notes: Mouse IgG1, hybridoma 6B5B11C10, raised against immunogen N2; also called 6B5B11C10
B3: Anti-hPG MAb 16 (antibody, V domains shown)
VH: QVQLQQSGAELVKPGASVKLSCKASGYTFTSYYMYWVKQRPGQGLEWIGEINPSNGGTNFNEKFKSKATLTVDKSSSTAYMQLSSLTSEDSAVYYCTRGGYYPFDYWGQGTTLTVSS
VL: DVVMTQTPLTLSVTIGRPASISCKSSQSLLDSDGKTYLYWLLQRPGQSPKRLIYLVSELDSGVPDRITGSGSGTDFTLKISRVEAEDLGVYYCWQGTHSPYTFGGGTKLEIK
notes: Mouse IgG1, hybridoma 1E9D9B6, raised against immunogen N2; also called 1E9D9B6
B4: Anti-hPG MAb 19 (antibody, V domains shown)
VH: DVQLQESGPGLVKPSQSLSLTCTVTGYSITSDYAWNWIRQFPGNKLEWMGYISFSGYTSYNPSLKSRISVTRDTSRNQFFLQLTSVTTEDTATYYCAREVNYGDSYHFDYWGQGTIVTVSS
VL: QLALTQSSSASFSLGASAKLTCTLSSQHRTYTIEWYQQQSLKPPKYVMEVKKDGSHSTGHGIPDRFSGSSSGADRYLSISNIQPEDEAIYICGVGDAIKGQSVFVFGGGTKVTVL
notes: Mouse IgG2, hybridoma 1B3B4F11, raised against immunogen N2; also called 1B3B4F11
B5: Anti-hPG MAb 8 (antibody, V domains shown)
VH: EVQLVESGGGLVKPGGSLKLSCAASGFTFTTYAMSWVRQTPEKRLEWVATISSGGTYTYYPDSVKGRFTISRDNAKNALYLQMSSLRSEDTAMYYCATQGNYSLDFWGQGTSLTVSS
VL: DIVMTQAASSNPVTLGTSASISCRSSKSLRHTKGITFLYWYLQKPGQSPQLLIYQMSNLASGVPDRFSSSGSGTDFTLRISRVEAEDLGVYYCAQNLELPLTFGAGTKLELK
notes: Mouse IgG1, hybridoma 1C10D3B9, raised against immunogen C1; also called 1C10D3B9
B6: Anti-hPG MAb 13 (antibody, V domains shown)
VH: EVQLVESGGGLVQPGGSLKLSCAASGFIFSSYGMSWVRQSPDRRLELVASINTFGDRTYYPDSVKGRFTISRDNAKNTLYLQMTSLKSEDTAIYYCARGTGTYWGQGTTLTVSS
VL: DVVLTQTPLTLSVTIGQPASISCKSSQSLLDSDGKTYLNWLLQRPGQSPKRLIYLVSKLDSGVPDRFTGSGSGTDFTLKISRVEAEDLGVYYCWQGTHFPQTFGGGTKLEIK
notes: Mouse IgG1, hybridoma 2C6C3C7, raised against immunogen C1; also called 2C6C3C7

Experiments:
[1] = target: T1, Recombinant human progastrin; experiment: ELISA on 50 ng coated hPG, antibody titrated, OD 492 nm, n=2
Procedure: After blocking, the wells were washed three times and the primary antibody—the antibody to be assayed—added. For initial screening of fused splenocytes, 50 μL of culture supernatant from each culture to be assayed was added to each well in the plate. In assays performed on monoclonal antibodies, 100 μL of the test antibody in PBS and 0.1% Tween-20 was added to each well. Plates were then incubated for 2 hours at 22° C., after which the primary antibody solution was discarded and replaced, after a wash step (3×100 μL wash solution, as noted above), with blocking solution containing the secondary antibody, which binds the primary antibody and is coupled to an enzyme. The secondary antibody was a goat anti-mouse IgG (Fc) antibody coupled to horseradish peroxidase. […] The reaction was then stopped by adding 50 μL of 4N sulfuric acid and the amount of substrate catalyzed determined by measuring the optical density (O.D.) at 492 nm. […] Samples were scored as positive for anti-PG antibodies if the measured O.D. was between 0.2 and 1.5. […]
Relative affinity of exemplary monoclonal antibodies was measured using the ELISA method described above, in which wells were coated with a peptide solution containing 50 ng progastrin and then incubated in the presence of increasing concentrations of each monoclonal antibody as follows: […]

[2] = target: T1, Recombinant human progastrin; experiment: SPR (Proteon), MAb captured on anti-mouse IgG, hPG injected
Procedure: To provide a more absolute quantification of affinity for the monoclonal antibodies, affinity constants were measured using the Proteon Technique (BioRad), according to Nahshol et al., 2008, Analytical Biochemistry 383:52-60, hereby incorporated by reference in its entirety. Briefly, an anti-mouse IgG antibody (50 μg/ml) was first coated on a sensor chip, making sure that the signal detected by the chip after injection of the antibody falls between 10,000 and 11,500 RU (response units). The murine monoclonal antibody to be tested was then injected (typical concentrations: 30 μg/ml). Sufficient binding of the antibody to be tested was determined based on a further signal of at least 500 RU on the sensor chip. A time-course of interaction between monoclonal anti-progastrin antibodies and progastrin was then measured by injecting varying concentrations of progastrin, for example 200, 100, 50, 25, and 12.5 nM, and the level of association detected. Typically, several channels are available to test multiple antibodies in parallel in a single experiment, making it possible to assay binding of test antibodies at varying concentrations of PG in parallel. Typically, one channel is reserved for a murine monoclonal antibody that is not specific to PG, as a control for non-specific binding, and another channel is injected with dilution buffer alone as a baseline for the background signal. Generally, no binding is detectable in the channels injected with non-specific murine antibody. Antibodies displaying a high level of association in this setting, which may result in saturation of the trapped monoclonal antibody by progastrin, can be tested against lower progastrin concentrations (50, 25, 12.5, 6.25 and 3.125 nM), allowing for a more refined measurement.
Affinity constants (KD) were calculated as the ratio between the dissociation constant (kd) and the association constant (ka). Experimental values were validated by analyzing the statistically relevant similarity between experimental curves based on binding measurements and theoretical profiles. The mathematical model used in the Proteon experiments to select whether experimental curves fit with the theoretical model was the Langmuir model, based on a 1:1 interaction between progastrin molecules and anti-progastrin monoclonal antibodies.

[3] = target: T2, Immunogen N2 = SWKPRSQQPDAPLG Ahx Cys …; experiment: ELISA of hybridoma supernatants
[4] = target: T1, Recombinant human progastrin; experiment: competition ELISA: hPG captured by a C-terminal polyclonal antibody; MAb 3 titrated against 10 µg/ml biotinylated N-terminal anti-hPG polyclonal antibody; streptavidin-HRP, luminescence, n=2
Procedure: The ability of an anti-hPG monoclonal antibody to compete with an anti-hPG polyclonal antibody for binding to progastrin was determined using an ELISA with a “capture” anti-hPG antibody and a “detection” anti-hPG antibody. Anti-hPG MAb 3 was assayed as follows: 96-well plates were pre-coated with C-terminal progastrin polyclonal antibodies raised against a peptide consisting of residues 71 to 80 of hPG. The plates were then incubated with […] progastrin was incubated, followed by addition of 10 μg/ml biotinylated N-terminal anti-hPG polyclonal antibody, raised against a peptide consisting of the amino acid sequence of SEQ ID NO:25, and increasing concentrations of anti-hPG MAb 3 monoclonal antibody. Binding of the biotinylated N-terminal anti-hPG polyclonal antibody was detected by incubating the plates with streptavidin-HRP followed by OPD, according to standard protocols. Binding was measured by quantifying luminescence.

[5] = target: T1, Recombinant human progastrin; experiment: cell-based or functional assay
[6] = target: T1, Recombinant human progastrin; experiment: cell-based or functional assay; remark: listed apart in the source
[7] = target: T1, Recombinant human progastrin; experiment: cell-based or functional assay; remark: listed apart in the source
[8] = target: T1, Recombinant human progastrin; experiment: cell-based or functional assay; remark: listed apart in the source

| Binder | EC50 (read off the curve) [1] | Kd [2] | binding result [3] | IC50 (read off the curve) [4] | surviving SW 620 cells, % of control MAb-treated cells (cell numbers - T0) [5] | surviving LS 174T cells, % of control MAb-treated cells (cell numbers - T0) [6] | surviving HCT-116 cells, % of control MAb-treated cells (cell numbers - T0) [7] | viable LS174T cells (CellTiter 96 absorbance at 490 nm), % of control MAb; anti-hPG MAb 8 pre-incubated with 20-fold molar excess hPG [8] |
| --- | --- | --- | --- | --- | --- | --- | --- | --- |
| B1 | ~8 ng/mL | 3.5 nM | binds |  |  |  |  |  |
| B2 |  | 6.4 nM | binds | ~4000 ng/mL |  |  |  |  |
| B3 | ~2 ng/mL | 0.2 nM and 0.278 nM |  |  | 58 % of control | 61 % of control |  |  |
| B4 |  | 0.7 nM and 0.779 nM |  |  | 69 % of control | 84.5 % of control | 88 % of control |  |
| B5 |  | 0.1 nM and 0.108 nM |  |  | 40 % of control | 42 % of control | 62 % of control | 148 % of control |
| B6 |  | 0.6 nM and 0.612 nM |  |  | 48 % of control | 58 % of control | 36 % of control |  |
